Among the data in US5354676A, “Recombinant modified thermostable NAD-dependent dehydrogenases and process for their production” (The University of Bristol, priority 1989, dated 1994) are Km, kcat/Km and kcat values, retold here.

What all share (experiment): purified protein, by the assay type
Substrate in data set [1]: NC(=O)C1=CN([C@@H]2O[C@H](COP(=O)(O)OP(=O)(O)OC[C@H]3O[C@@H](n4cnc5c(N)ncnc54)[C@H](O)[C@@H]3O)[C@@H](O)[C@H]2O)C=CC1
The data set is classed as biochemical, Bacillus stearothermophilus. Conditions: other: WT; in the presence of 0.5 mM pyruvate; pH 6.0.

Substrate in data set [2]: CC(=O)C(=O)O
The data set is classed as biochemical, Bacillus stearothermophilus. Conditions: other: WT, No FBP, pH 6.

Substrate in data set [3]: NC(=O)C1=CN([C@@H]2O[C@H](COP(=O)(O)OP(=O)(O)OC[C@H]3O[C@@H](n4cnc5c(N)ncnc54)[C@H](O)[C@@H]3O)[C@@H](O)[C@H]2O)C=CC1
The settings on record: other: GG; in the presence of 0.5 mM pyruvate; pH 6.0.

Substrate in data set [4]: NC(=O)C1=CN([C@@H]2O[C@H](COP(=O)(O)OP(=O)(O)OC[C@H]3O[C@@H](n4cnc5c(N)ncnc54)[C@H](O)[C@@H]3O)[C@@H](O)[C@H]2O)C=CC1
It is filed as biochemical. Conditions: in the presence of 0.5 mM pyruvate, pH 6.0.

Substrate in data set [5]: CC(=O)C(=O)O
It is filed as biochemical. Conditions: other: MVS, No FBP, pH 6.

B1: Bacillus stearothermophilus NAD-dependent L-lactate dehydrogenase, wild type (WT) (Geobacillus stearothermophilus) (protein)
chain: MKNNGGARVVVIGAGFVGASYVFALMNQGIADEIVLIDANESKAIGDAMDFNHGKVFAPKPVDIWHGDYDDCRDADLVVICAGANQKPGETRLDLVDKNIAIFRSIVESVMASGFQGLFLVATNPVDILTYATWKFSGLPHERVIGSGTILDTARFRFLLGEYFSVAPQNVHAYIIGEHGDTELPVWSQAYIGVMPIRKLVESKGEEAQKDLERIFVNVRDAAYQIIEKKGATYYGIAMGLARVTRAILHNENAILTVSAYLDGLYGERDVYIGVPAVINRNGIREVIEIELNDDEKNRFHHSAATLKSVLARAFTR
notes: made in house; host or cells: E. coli
By Km is commonly meant the substrate concentration at which the rate is half of its maximum. In general, kcat/Km refers to the second-order rate constant that governs catalysis at low substrate concentration. Regarding B1, the Michaelis constant (Km) in data set [1] came to 18 µM; in data set [2] it was 3000 µM. Also, in data set [2], the kcat/Km amounted to 83000 M⁻¹ s⁻¹.

B2: Bacillus stearothermophilus L-lactate dehydrogenase variant GG (235-6 AA→GG) (Geobacillus stearothermophilus; A222G/A223G) (protein)
chain: MKNNGGARVVVIGAGFVGASYVFALMNQGIADEIVLIDANESKAIGDAMDFNHGKVFAPKPVDIWHGDYDDCRDADLVVICAGANQKPGETRLDLVDKNIAIFRSIVESVMASGFQGLFLVATNPVDILTYATWKFSGLPHERVIGSGTILDTARFRFLLGEYFSVAPQNVHAYIIGEHGDTELPVWSQAYIGVMPIRKLVESKGEEAQKDLERIFVNVRDGGYQIIEKKGATYYGIAMGLARVTRAILHNENAILTVSAYLDGLYGERDVYIGVPAVINRNGIREVIEIELNDDEKNRFHHSAATLKSVLARAFTR
B2: in data set [3], the Michaelis-Menten constant (Km) stood at 18 µM.

B3: Bacillus stearothermophilus L-lactate dehydrogenase variant MVS (102-5 QKP→MVS) (Geobacillus stearothermophilus; K87V/P88S/Q86M) (protein)
chain: MKNNGGARVVVIGAGFVGASYVFALMNQGIADEIVLIDANESKAIGDAMDFNHGKVFAPKPVDIWHGDYDDCRDADLVVICAGANMVSGETRLDLVDKNIAIFRSIVESVMASGFQGLFLVATNPVDILTYATWKFSGLPHERVIGSGTILDTARFRFLLGEYFSVAPQNVHAYIIGEHGDTELPVWSQAYIGVMPIRKLVESKGEEAQKDLERIFVNVRDAAYQIIEKKGATYYGIAMGLARVTRAILHNENAILTVSAYLDGLYGERDVYIGVPAVINRNGIREVIEIELNDDEKNRFHHSAATLKSVLARAFTR
notes: made in house; host or cells: E. coli TG2, vector pKK223-3
The kcat is the number of substrate molecules converted per active site and unit of time at saturation. As for B3, the Michaelis constant (Km) in data set [4] (other: MVS) worked out at 14.5 µM. Also, in data set [5], the Km amounted to 15000 µM, the catalytic constant (kcat) was 61 s⁻¹ and the kcat/Km was determined as 4100 M⁻¹ s⁻¹.

B4: Bacillus stearothermophilus L-lactate dehydrogenase variant MVS/GG (102-5 QKP→MVS and 235-6 AA→GG) (Geobacillus stearothermophilus; A222G/A223G/K87V/P88S/Q86M) (protein)
chain: MKNNGGARVVVIGAGFVGASYVFALMNQGIADEIVLIDANESKAIGDAMDFNHGKVFAPKPVDIWHGDYDDCRDADLVVICAGANMVSGETRLDLVDKNIAIFRSIVESVMASGFQGLFLVATNPVDILTYATWKFSGLPHERVIGSGTILDTARFRFLLGEYFSVAPQNVHAYIIGEHGDTELPVWSQAYIGVMPIRKLVESKGEEAQKDLERIFVNVRDGGYQIIEKKGATYYGIAMGLARVTRAILHNENAILTVSAYLDGLYGERDVYIGVPAVINRNGIREVIEIELNDDEKNRFHHSAATLKSVLARAFTR
notes: as for B3
With B4, in data set [4] (other: MVS/GG), the Km was 14.5 µM.
